Series [1] in a line: RP-HPLC retention time (read by the paper as polarity). The class given is physicochemical. Particulars: water/acetonitrile gradient with 0.1% formic acid, MS TIC detection. The method, then: An Agilent binary HPLC composing of an Agilent 1100 LC pump, an Agilent 1100 well plate auto-sampler (Agilent Technologies, Santa Clara, CA, USA) and a Jupiter 5 μ (C4, 300 A, 150×2.00 mm, 5 μ) RP HPLC column (Phenomenex, Torrance, CA, USA) were used for separation. The mobile phase flow rate was 200 µl/min and the volume of injection was 20 µL. The separations were performed using a binary solvent gradient; water (Milli-Q; Millipore Corporation, Bedford, MA) which contained 0.1% v/v formic acid was used as the solvent A and acetonitrile (Merck KGaA, Darmstadt, Germany) which contained 0.1% v/v formic acid (Nuplex industries Pty Ltd. (NSW, Australia) was used as the solvent B. The chromatographic separation was achieved using the gradient shown in Table 1.
An API 3000 tandem mass spectrometer equipped with a turbo ion spray was used as the detector. Detection was performed in total ion current (TIC) mode (MS1/Q1), in positive mode, within the range 200–3000 amu. The data were acquired and processed by Analyst 1.5 software (Applied Biosystems, Foster city, CA, USA). Mass spectra were obtained using: declustering potential (DF) of 16 V, focusing potential (FP) of 120 V, Entrance potential (EP) of 10 V, and Ion spray voltage (IS) of 5000 V. Structure identity of fragments was performed using the respective mass/charge (m/z) values of each peptide metabolite. Direct flow injections were carried out using Model 11 plus Harvard Syringe pump (Harvard Apparatus Inc, Holliston, MA, USA).

The nature of series [2]: Biotransformation in homogenised inflamed tissue at pH 5.5 (LC/MS, mean residence time). Particulars: for MRT: MES pH 5.5, 37°C, 120 min, AUMC/AUC of LC/MS peak intensity.
[3] abbreviates: incubation of BE 1-17, Jupiter C4 column.
Setting [4] is: incubation of BE 1-17 (115 µM) in rat inflamed tissue homogenate.
[5] abbreviates: incubation of BE 1-31, Jupiter C4 300 A column, 200 µl/min.
The mark [6] stands for this setting: incubation of BE 1-31 (115 µM) in rat inflamed tissue homogenate.
Setting [7] is: incubation of BE 1-11, Jupiter C4 column.
The mark [8] stands for this setting: incubation of BE 1-11 (115 µM) in rat inflamed tissue homogenate.
[9] abbreviates: incubation of BE 1-13, Jupiter C4 column.
[10] abbreviates: incubation of BE 1-13 (115 µM) in rat inflamed tissue homogenate.

Data on 29 substances can be found in PMC3949714 (PLoS ONE, 2014).

“BE 2-17: des-tyrosine beta-endorphin fragment, residues 2-17 (GGFMTSEKSQTPLVTL; Beta-endorphin; UniProt P01189 238-253, looked up, fragment)” returned an RT in series [1] (setting [3]) of 24 min. Also, in series [2] (setting [4]), the MRT was 7.45.

With “BE 6-14: beta-endorphin fragment, residues 6-14 (TSEKSQTPL; Beta-endorphin; UniProt P01189 242-250, looked up, fragment)”, in series [1] (setting [3]), the RT is listed as 14.62 min.

Regarding “BE 29-31: beta-endorphin fragment, residues 29-31 (KGE; Beta-endorphin; UniProt P01189 265-267, looked up, fragment)”, the RT in series [1] (setting [5]) was 5.4 min.

For “BE 6-31: beta-endorphin fragment, residues 6-31 (TSEKSQTPLVTLFKNAIIKNAYKKGE; Beta-endorphin; UniProt P01189 242-267, looked up, fragment)”, in series [1] (setting [5]), the RT is reported as 24.7 min. The same substance came in with an MRT in series [2] (setting [6]) of 40.

“BE 3-11: beta-endorphin fragment, residues 3-11 (GFMTSEKSQ; Beta-endorphin; UniProt P01189 239-247, looked up, fragment)” gave a Rt in series [1] (setting [7]) of 15.4 min. In series [1] (setting [3]), this substance gave an RT of 21.48 min. Moreover, the MRT in series [2] (setting [8]) came to 14.

With “BE 3-14: beta-endorphin fragment, residues 3-14 (GFMTSEKSQTPL; Beta-endorphin; UniProt P01189 239-250, looked up, fragment)”, in series [1] (setting [3]), the RT is listed as 20.1 min.

In the case of “BE 20-24: beta-endorphin intermediate fragment, residues 20-24 (NAIIK; Beta-endorphin; UniProt P01189 256-260, looked up, fragment)”, the RT in series [1] (setting [5]) came out at 16.1 min. Further, in series [2] (setting [6]), the MRT amounted to 98.

In series [1] (setting [5]), “BE 5-24: beta-endorphin fragment, residues 5-24 (MTSEKSQTPLVTLFKNAIIK; Beta-endorphin; UniProt P01189 241-260, looked up, fragment)” yielded an RT of 19 min. In addition, the MRT in series [2] (setting [6]) is reported as 25.1.

In the case of “BE 10-16: beta-endorphin intermediate fragment, residues 10-16 (SQTPLVT; Beta-endorphin; UniProt P01189 246-252, looked up, fragment)”, in series [1] (setting [5]), the RT is recorded as 19 min. Moreover, in series [2] (formed during incubation of BE 1–31, pH 5.5, 37°C), the “Time observed as metabolite in homogenised inflamed tissue” value was “over 60 minutes”. This substance also yielded an MRT in series [2] (setting [6]) of 44.3.

In series [1] (setting [9]), “BE 2-12: beta-endorphin fragment, residues 2-12 (GGFMTSEKSQT; Beta-endorphin; UniProt P01189 238-248, looked up, fragment)” registered a Rt of 16.2 min. In addition, the MRT in series [2] (setting [10]) was 18.1.

In series [1] (setting [9]), “BE 3-13: beta-endorphin fragment, residues 3-13 (GFMTSEKSQTP; Beta-endorphin; UniProt P01189 239-249, looked up, fragment)” displayed a Rt of 17.2 min. In series [2] (setting [10]), this substance came in with an MRT of 16.1.

In turn, “BE 2-13: des-tyrosine beta-endorphin fragment, residues 2-13 (GGFMTSEKSQTP; Beta-endorphin; UniProt P01189 238-249, looked up, fragment)” yielded a Rt in series [1] (setting [9]) of 17.2 min. In addition, the RT was found to be 17.08 min in series [1] (setting [3]) and 19.96 min in series [1] (setting [5]). For the same substance, the MRT in series [2] (setting [10]) was determined as 16.4; in series [2] (setting [4]) it was 25.5; in series [2] (setting [6]), 65.

Substance “BE 10-28: beta-endorphin fragment, residues 10-28 (SQTPLVTLFKNAIIKNAYK; Beta-endorphin; UniProt P01189 246-264, looked up, fragment)” showed an RT in series [1] (setting [5]) of 26.9 min. Besides, the MRT in series [2] (setting [6]) stood at 32.3.

Substance “BE 19-31: beta-endorphin C-terminal fragment, residues 19-31 (KNAIIKNAYKKGE; Beta-endorphin; UniProt P01189 255-267, looked up, fragment)” returned an RT in series [1] (setting [5]) of 13.67 min. Besides, the MRT in series [2] (setting [6]) came out at 80.

With “BE 20-31: beta-endorphin C-terminal fragment, residues 20-31 (NAIIKNAYKKGE; Beta-endorphin; UniProt P01189 256-267, looked up, fragment)”, the RT in series [1] (setting [5]) is recorded as 14.3 min. This substance also came in with an MRT in series [2] (setting [6]) of 72.2.

Turning to “BE 7-16: beta-endorphin fragment, residues 7-16 (SEKSQTPLVT; Beta-endorphin; UniProt P01189 243-252, looked up, fragment)”, in series [1] (setting [3]), the RT came to 16 min.

For “BE 4-11: beta-endorphin fragment, residues 4-11 (FMTSEKSQ; Beta-endorphin; UniProt P01189 240-247, looked up, fragment)”, the Rt in series [1] (setting [7]) amounted to 13.8 min. This substance came in with an MRT in series [2] (setting [8]) of 22.7.

“BE 3-12: beta-endorphin fragment, residues 3-12 (GFMTSEKSQT; Beta-endorphin; UniProt P01189 239-248, looked up, fragment)”: the RT in series [1] (setting [3]) came out at 20.53 min.

Substance “BE 8-14: beta-endorphin fragment, residues 8-14 (EKSQTPL; Beta-endorphin; UniProt P01189 244-250, looked up, fragment)” came in with an RT in series [1] (setting [3]) of 16.27 min.

“BE 1-14: beta-endorphin N-terminal fragment, residues 1-14 (YGGFMTSEKSQTPL; Beta-endorphin; UniProt P01189 237-250, looked up, fragment)” gave an RT in series [1] (setting [3]) of 21.13 min. In series [2] (setting [4]), this substance returned an MRT of 13.8.

Regarding “BE 2-16: des-tyrosine beta-endorphin fragment, residues 2-16 (GGFMTSEKSQTPLVT; Beta-endorphin; UniProt P01189 238-252, looked up, fragment)”, in series [1] (setting [3]), the RT worked out at 20.43 min. This substance also returned an MRT in series [2] (setting [4]) of 15.1.

In series [1] (setting [3]), “BE 4-14: beta-endorphin fragment, residues 4-14 (FMTSEKSQTPL; Beta-endorphin; UniProt P01189 240-250, looked up, fragment)” had an RT of 18.68 min.

With “BE 2-11: des-tyrosine beta-endorphin fragment, residues 2-11 (GGFMTSEKSQ; Beta-endorphin; UniProt P01189 238-247, looked up, fragment)”, the Rt in series [1] (setting [7]) and in series [1] (setting [9]) was 15.7 min in each case. Further, the RT in series [1] (setting [3]) stood at 15.52 min; in series [1] (setting [5]) it was 17.5 min. For the same substance, the MRT in series [2] (setting [8]) is reported as 15; in series [2] (setting [10]), 20.2; in series [2] (setting [4]) it was 31.8; in series [2] (setting [6]), 37.

For the substance “BE 2-9: des-tyrosine beta-endorphin fragment, residues 2-9 (GGFMTSEK; Beta-endorphin; UniProt P01189 238-245, looked up, fragment)”, the Rt in series [1] (setting [7]) and in series [1] (setting [9]) was 15.8 min each time. The values for the RT in series [1] (setting [3]) and in series [1] (setting [5]) were 15.87 min and 18.38 min, respectively. Further, the MRT in series [2] (setting [8]) came out at 17; in series [2] (setting [10]), 19.8; in series [2] (setting [4]), 21; in series [2] (setting [6]), 20.

In series [1] (setting [5]), “BE 10-18: beta-endorphin fragment, residues 10-18 (SQTPLVTLF; Beta-endorphin; UniProt P01189 246-254, looked up, fragment)” gave an RT of 28.2 min. In series [2] (setting [6]), this substance yielded an MRT of 13.3.

Regarding “BE 4-15: beta-endorphin fragment, residues 4-15 (FMTSEKSQTPLV; Beta-endorphin; UniProt P01189 240-251, looked up, fragment)”, the RT in series [1] (setting [3]) was 20.13 min.

The substance “BE 7-14: beta-endorphin fragment, residues 7-14 (SEKSQTPL; Beta-endorphin; UniProt P01189 243-250, looked up, fragment)” displayed an RT in series [1] (setting [3]) of 14.92 min.

Turning to “BE 4-16: beta-endorphin fragment, residues 4-16 (FMTSEKSQTPLVT; Beta-endorphin; UniProt P01189 240-252, looked up, fragment)”, the RT in series [1] (setting [3]) is on record as 19.32 min.

The substance “BE 2-15: beta-endorphin fragment, residues 2-15 (GGFMTSEKSQTPLV; Beta-endorphin; UniProt P01189 238-251, looked up, fragment)” registered an RT in series [1] (setting [3]) of 21.33 min.
